Assay results reported in US20220278152, “SPECTRALLY FILTERED PHOTODIODE PAIR” (UNIVERSITY OF MASSACHUSETTS, published 2022).

Assays:
Streptavidin = Streptavidin (UniProt P22629 P22629:25-183); test: specificity control; 0.1 pM-1 nM free streptavidin, <5% signal change, 1x PBS; biotinylated aptamer already immobilised on surface streptavidin; details: tags: Sigma Aldrich; chain copies: 4; label: Cy5 (5'), biotin (3'); hairpin (self-hybridizes without IFN-γ)
Method: After each analyte's respective incubation period, the extra unbonded analyte was removed by washing with 9 mL deionized water.
(§1) Following this surface functionalization procedure, two aptasensing experiments were conducted where, in each experiment, the device was kept in 1×PBS and sequentially introduced 0.1 pM-1 nM analyte in 15-minute intervals followed by a water washing step and reintroduced analytes and water washing as 2nd round via the microfluidic channel (FID. 10a-c). During introducing each concentration, an upright fluorescence microscope was used to illuminate the PD array with pulses of 550/15 nm excitation light (Ilight=100%, 260 mW) which have tₒₙ/toff=18/162 s (i.e., 3 min period) to alleviate the photobleaching effect.
For the first experiment, streptavidin was sequentially introduced as a control to evaluate the specificity of the array. […] For the second experiment, IFN-γ was sequentially introduced to evaluate the sensibility of the array. […] Due to this conformation change, less AF555 emission light will excite the Cy5 molecules, leading to the observed increase [decrease] in AF555 [Cy5] pixel signals.

Interferon gamma (IFN-γ) = Interferon gamma (IFN-γ) (Homo sapiens, UniProt P01579 P01579:24-166); test: FRET ratiometric photodiode aptasensor; aptamer on AF555-streptavidin/biotin-BSA surface; signal change 0.1-10 pM, LOD 1 pM, saturated at 100 pM-1 nM; 1x PBS; reversible by 55 C water wash; details: tags: R&D Systems, recombinant human IFN-γ; chain copies: 2; label: Cy5 (5'), biotin (3'); hairpin (self-hybridizes without IFN-γ)
Source text: To package the PD array for ratiometric aptasensing experiments, a 50 μm tall PDMS microfluidic channel with one inlet and one outlet hole was fabricated via a standard SU-8 photolithography process, and then bonded the microfluidic channel over the PD array via O₂ plasma. Tubing was inserted into the inlet and outlet holes to allow for injection and removal of analytes. To achieve ratiometric aptasensing […], the surface of the array was functionalized by sequentially introducing BSA, AF555 conjugated streptavidin, and biotinylated Cy5 labeled IFN-γ DNA aptamers. After each analyte's respective incubation period, the extra unbonded analyte was removed by washing with 9 mL deionized water.
as §1, with “effect. […]” for “effect.”

Streptavidin, sequence (P22629 25-183, one chain of several): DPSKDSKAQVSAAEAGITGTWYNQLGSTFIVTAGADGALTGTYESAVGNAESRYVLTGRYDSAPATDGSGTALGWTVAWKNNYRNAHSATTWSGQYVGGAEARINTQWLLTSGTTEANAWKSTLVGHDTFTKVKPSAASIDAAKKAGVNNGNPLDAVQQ
Interferon gamma (IFN-γ), sequence (P01579 24-166, one chain of several): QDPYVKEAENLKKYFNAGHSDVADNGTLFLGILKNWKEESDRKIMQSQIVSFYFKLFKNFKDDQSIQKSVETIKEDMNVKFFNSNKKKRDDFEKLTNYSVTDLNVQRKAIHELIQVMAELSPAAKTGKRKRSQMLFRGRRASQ

B1: IFN-γ DNA aptamer (ssDNA)
DNA: GGGGTTGGTTGTGTTGGGTGTTGTGTCCAACCCCTTT
modifications: 5' Cy5, 3' biotin [1 (5' Cy5), 37 (3' biotin)]
- binding result (Streptavidin): no binding
- binding result (Interferon gamma (IFN-γ)): binds
